The text below walks through data of patent publication US20190367620A1.

Test [1] concerns the target Human FGF1 (human) (UniProt P05230). Description: cell-based or functional assay.
For test [2], the target named is Human FGF2 (human) (UniProt P09038). Kind of test: cell-based or functional assay.
Human FGF2 (human), sequence (P09038 135-288 limits assumed): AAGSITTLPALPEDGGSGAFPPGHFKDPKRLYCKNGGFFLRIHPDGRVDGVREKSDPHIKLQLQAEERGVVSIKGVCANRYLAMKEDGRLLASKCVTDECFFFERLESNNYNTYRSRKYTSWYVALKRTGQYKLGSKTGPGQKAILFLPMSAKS

Human FGF1 (human), sequence (P05230 16-155 limits assumed): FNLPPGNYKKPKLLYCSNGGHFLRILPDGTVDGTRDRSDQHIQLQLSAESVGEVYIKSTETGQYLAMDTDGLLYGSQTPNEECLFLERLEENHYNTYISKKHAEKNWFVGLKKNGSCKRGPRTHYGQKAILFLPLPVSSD

For the substance FP-1039 (Fc fusion), in test [1], the IC50, inhibition of P-FGFR1 in NCI-H520 cells, FGF1 stimulated was determined as 50 nM. Further, the IC50, inhibition of P-FGFR1 in NCI-H520 cells, FGF2 stimulated in test [2] amounted to 30 nM.
